Legend:
neutrophil count = assay: Intravenous administration of lipoplexed G-CSF mRNA, neutrophil count; type: in vivo; conditions: mice IV, 50 ug RNA in 10% lipoplex at days 0, 2 and 4; day 5
Procedure: Neutrophils were measured at days 1, 5 and 8. Controls included non-specific mammalian RNA or the formulation buffer alone (F.Buffer). The mice were bled at days 1, 5 and 8 to determine the effect of mRNA-encoded human G-CSF to increase neutrophil count. The dosing regimen is shown in Table 64 as are the resulting neutrophil counts (thousands/uL; K/uL).

[1] = LNP formulations in mice, serum G-CSF or EPO by ELISA; type: in vivo; conditions: mice IV; for time out to which protein expression was detectable: LNP
Procedure: (§1) Formulations, listed in Table 31, were characterized by particle size, zeta potential, and encapsulation.
LNP formulations, shown in Table 31 (above), were administered to mice (n=4) intravenously (IV) at a single modified mRNA dose 0.05 mg/kg or 0.005 mg/kg. There was also 3 control groups of mice (n=4) that were untreated. The mice were bled at 2 hours, 8 hours, 24 hours, 48 hours and 72 hours after they were administered with G-CSF or EPO modified mRNA formulations to determine the protein expression. Protein expression of G-CSF and EPO were determined using ELISA.

IFN-alpha = assay: Cytokine study PBMC, IFN-alpha production ELISA; type: cell-based; conditions: human PBMC, Lipofectamine 2000
Procedure: The plates were then incubated at 37 C.
Each condition was done in duplicate
Shown in Tables 69 and 70 are the average from 2 separate PBMC donors of the G-CSF and IFN-alpha production over time as measured by specific ELISA.

[2] = Non-human primate in vivo study, serum G-CSF or EPO by ELISA; design: species or system cynomolgus monkey; conditions: for Female NHP Serum Concentration / Male NHP Serum Concentration: G-CSF LNP, 0.05 mg/kg IV
Procedure: as §1
LNP formulations, shown in Table 31 (above), were administered to non-human primates (NHP) (cynomolgus monkey) (n=2) as a bolus intravenous injection (IV) over approximately 30 seconds using a hypodermic needle, which may be attached to a syringe/abbocath or butterfly if needed. The NHP were administered a single modified mRNA IV dose of 0.05 mg/kg of EPO or G-CSF or 0.005 mg/kg of EPO in a dose volume of 0.5 mL/kg. The NHPs were bled 5-6 days before dosing with the modified mRNA LNP formulations to determine protein expression in the serum and a baseline complete blood count. After administration with the modified mRNA formulation the NHP were bled at 8, 24, 48 and 72 hours to determined protein expression. At 24 and 72 hours after administration the complete blood count of the NHP was also determined. Protein expression of G-CSF and EPO was determined by ELISA. Urine from the NHPs was collected over the course of the entire experiment and analyzed to evaluate clinical safety. Samples were collected from the NHPs after they were administered with G-CSF or EPO modified mRNA formulations to determine protein expression using ELISA. Clinical chemistry, hematology, urinalysis and cytokines of the non-human primates were also analyzed.

[3] = Non-human primate in vivo study for G-CSF and EPO, serum protein by ELISA; design: species or system cynomolgus monkey
Procedure: as §1
LNP formulations, shown in Table 31 (above), were administered to non-human primates (NHP) (cynomolgus monkey) (n=2) as intravenous injection (IV). The NHP were administered a single modified mRNA IV dose of 0.5 mg/kg, 0.05 mg/kg or 0.005 mg/kg of G-CSF or EPO in a dose volume of 0.5 mL/kg. The NHPs were bled before dosing with the modified mRNA LNP formulations to determine protein expression in the serum and a baseline complete blood count. After administration with the G-CSF modified mRNA formulation the NHP were bled at 8, 24, 48 and 72 hours to determined protein expression. After administration with the EPO modified mRNA formulation the NHP were bled at 8, 24, 48, 72 hours and 7 days to determined protein expression.
Samples collected from the NHPs after they were administered with G-CSF or EPO modified mRNA formulations were analyzed by ELISA to determine protein expression. Neutrophil and reticulocyte count was also determined pre-dose, 24 hours, 3 days, 7 days, 14 days and 18 days after administration of the modified G-CSF or EPO formulation.

Procedure for HEK293 cells: Human embryonic kidney epithelial (HEK293) cells were seeded on 96-well plates at a density of 30,000 cells per well in 100 ul cell culture medium. 250 ng of modified G-CSF mRNA (SEQ ID NO: 6; polyA tail of approximately 160 nucleotides not shown in sequence; 5′cap, Cap1) formulated with RNAiMAX™ (Invitrogen, Carlsbad, Calif.) was added to a well. The G-CSF was completely modified with 5mC and pseudoU (100% modification), not modified with 5mC and pseudoU (0% modification) or was partially modified with 5mC and pseudoU so the mRNA would contain 75% modification, 50% modification or 25% modification. Control samples (AH 5/2, mCherry (SEQ ID NO: 7; polyA tail of approximately 160 nucleotides not shown in sequence; 5′cap, Cap1; fully modified 5mC and pseudoU) and untreated) were also analyzed. […] The supernatants were harvested after 16 hours and the secreted G-CSF protein was analyzed by ELISA.

B1: G-CSF: human G-CSF mRNA, SEQ ID NO: 6, polyA about 160 nt, Cap1, fully modified with 5-methylcytosine and pseudouridine (nucleic acid, listed as Homo sapiens)
chain: GGGAAAUAAGAGAGAAAAGAAGAGUAAGAAGAAAUAUAAGAGCCACCAUGGCCGGUCCCGCGACCCAAAGCCCCAUGAAACUUAUGGCCCUGCAGUUGCUGCUUUGGCACUCGGCCCUCUGGACAGUCCAAGAAGCGACUCCUCUCGGACCUGCCUCAUCGUUGCCGCAGUCAUUCCUUUUGAAGUGUCUGGAGCAGGUGCGAAAGAUUCAGGGCGAUGGAGCCGCACUCCAAGAGAAGCUCUGCGCGACAUACAAACUUUGCCAUCCCGAGGAGCUCGUACUGCUCGGGCACAGCUUGGGGAUUCCCUGGGCUCCUCUCUCGUCCUGUCCGUCGCAGGCUUUGCAGUUGGCAGGGUGCCUUUCCCAGCUCCACUCCGGUUUGUUCUUGUAUCAGGGACUGCUGCAAGCCCUUGAGGGAAUCUCGCCAGAAUUGGGCCCGACGCUGGACACGUUGCAGCUCGACGUGGCGGAUUUCGCAACAACCAUCUGGCAGCAGAUGGAGGAACUGGGGAUGGCACCCGCGCUGCAGCCCACGCAGGGGGCAAUGCCGGCCUUUGCGUCCGCGUUUCAGCGCAGGGCGGGUGGAGUCCUCGUAGCGAGCCACCUUCAAUCAUUUUUGGAAGUCUCGUACCGGGUGCUGAGACAUCUUGCGCAGCCGUGAAGCGCUGCCUUCUGCGGGGCUUGCCUUCUGGCCAUGCCCUUCUUCUCUCCCUUGCACCUGUACCUCUUGGUCUUUGAAUAAAGCCUGAGUAGGAAG
modifications: Cap1; polyA; 5-methylcytosine, pseudouridine
- increase in neutrophil count above control (neutrophil count): four to five fold increase
- G-CSF Serum Concentration ([1]; LNP NPA-030-2, 0.005 mg/kg, 2 hours): 3,447.8 pg/ml
- G-CSF Serum Concentration ([1]; LNP NPA-030-2, 0.005 mg/kg, 8 hours): 11,454.0 pg/ml
- G-CSF Serum Concentration ([1]; LNP NPA-030-2, 0.005 mg/kg, 24 hours): 4,960.2 pg/ml
- G-CSF Serum Concentration ([1]; LNP NPA-030-2, 0.005 mg/kg, 48 hours): 686.4 pg/mL
- G-CSF Serum Concentration ([1]; LNP NPA-030-2, 0.05 mg/kg, 2 hours): 20,951.4 pg/ml
- G-CSF Serum Concentration ([1]; LNP NPA-030-2, 0.05 mg/kg, 8 hours): 20,012.8 pg/ml
- G-CSF Serum Concentration ([1]; LNP NPA-030-2, 0.05 mg/kg, 24 hours): 19,356.2 pg/ml
- G-CSF Serum Concentration ([1]; LNP NPA-030-2, 0.05 mg/kg, 48 hours): 1,963.0 pg/ml
- G-CSF Serum Concentration ([1]; LNP NPA-030-2, 0.05 mg/kg, 72 hours): 47.3 pg/mL
- time out to which protein expression was detectable ([1]; 0.005 mg/kg): ≥ 48 h
- time out to which protein expression was detectable ([1]; 0.05 mg/kg): ≥ 72 h
- innate immune recognition, cytokines (IFN-alpha) (IFN-alpha): induced IFN-alpha, TNF-alpha and IP10
- Female NHP Serum Concentration ([2]; 8 hours): 3289 pg/mL
- Male NHP Serum Concentration ([2]; 8 hours): 1722 pg/mL
- Female NHP Serum Concentration ([2]; 48 hours): 0 pg/mL
- Male NHP Serum Concentration ([2]; 48 hours): 0 pg/mL
- Female NHP Serum Concentration ([2]; 72 hours): 0 pg/mL
- Male NHP Serum Concentration ([2]; 72 hours): 0 pg/mL
- Female NHP Serum Concentration ([2]; Pre-bleed): 0 pg/mL
- Male NHP Serum Concentration ([2]; Pre-bleed): 0 pg/mL
- time out to which protein expression was detectable ([2]; NHP IV, LNP, 0.05 mg/kg): 24 h
- Male NHP Serum G-CSF Concentration ([3]; 0.005 mg/kg IV LNP, 24 hours): <39 pg/mL
- Male NHP Serum G-CSF Concentration ([3]; 0.005 mg/kg IV LNP, 48 hours): <39 pg/mL
- Male NHP Serum G-CSF Concentration ([3]; 0.005 mg/kg IV LNP, 72 hours): <39 pg/mL
- Male NHP Serum G-CSF Concentration ([3]; 0.005 mg/kg IV LNP, Pre-bleed): <39 pg/mL
- Female NHP Serum G-CSF Concentration ([3]; 0.05 mg/kg IV LNP, 8 hours): 3,289 pg/ml
- Male NHP Serum G-CSF Concentration ([3]; 0.05 mg/kg IV LNP, 8 hours): 1,722 pg/ml
- Female NHP Serum G-CSF Concentration ([3]; 0.05 mg/kg IV LNP, 24 hours): 722 pg/mL
- Male NHP Serum G-CSF Concentration ([3]; 0.05 mg/kg IV LNP, 24 hours): 307 pg/mL
- Male NHP Serum G-CSF Concentration ([3]; 0.05 mg/kg IV LNP, 48 hours): <39 pg/mL
- Male NHP Serum G-CSF Concentration ([3]; 0.05 mg/kg IV LNP, 72 hours): <39 pg/mL
- Male NHP Serum G-CSF Concentration ([3]; 0.05 mg/kg IV LNP, Pre-bleed): <39 pg/mL
- Male NHP Serum G-CSF Concentration ([3]; 0.5 mg/kg IV LNP, Pre-bleed, limit of detection 39 pg/ml): <39 pg/mL
- time beyond which protein expression was not detected ([3]; NHP IV, G-CSF LNP): ≤ 72 h
- half-life of mRNA (HEK293 cells): 8 to 10 h

— US20200164038A1, “MODIFIED NUCLEOSIDE, NUCLEOTIDE, AND NUCLEIC ACID COMPOSITIONS” (ModernaTX, Inc., priority 2011, published 2020)
